Test results from paper PMC4241754 (Biochemistry, 2010).

Target: the molecule itself
Test: crystal structure

B1: WlbA from Pseudomonas aeruginosa (enzyme)
chain: MASKNFALIGAAGYIAPRHMRAIKDTGNCLVSAYDINDSVGIIDSISPQSEFFTEFEFFLDHASNLKRDSATALDYVSICSPNYLHYPHIAAGLRLGCDVICEKPLVPTPEMLDQLAVIERETDKRLYNILQLRHHQAIIALKDKVAREKSPHKYEVDLTYITSRGNWYLKSWKGDPRKSFGVATNIGVHFYDMLHFIFGKLQRNVVHFTSEYKAAGYLEYEQARVRWFLSVDANDLPESVKGKKPTYRSITVNGEEMEFSEGFTDLHTTSYEEILAGRGYGIDDARHCVETVNTIRSAVIVPASDNEGHPFVAALAR
**Q.** B1 was tested. Which “stoichiometry N” value did it give?
**A.** Its value is 4.
